Test results taken from paper PMC10397247.

Assays:
Assay in all cases: two-hybrid library CCmax;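 also: natural log of median RNA to DNA barcode read ratio; higher means stronger binding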
Core_ININ-es_KEEE = biological target: T1, Core_ININ-es_KEEE; conditions: mean of both orientations
T1 chain: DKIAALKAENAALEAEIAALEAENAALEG

APC1115-AA = biological target: T2, APC1115-AA
T2 chain: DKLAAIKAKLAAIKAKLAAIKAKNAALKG

APC1242-AA = biological target: T3, APC1242-AA; conditions: mean of both orientations
T3 chain: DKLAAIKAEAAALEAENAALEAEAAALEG

APC1916-AA = biological target: T4, APC1916-AA; conditions: mean of both orientations
T4 chain: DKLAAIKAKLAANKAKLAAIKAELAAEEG

APC1987-AA = biological target: T5, APC1987-AA; conditions: mean of both orientations
T5 chain: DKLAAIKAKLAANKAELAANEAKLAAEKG

APC222-AA = biological target: T6, APC222-AA; conditions: mean of both orientations
T6 chain: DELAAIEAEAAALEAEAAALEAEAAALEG

APC2257-AA = biological target: T7, APC2257-AA; conditions: mean of both orientations
T7 chain: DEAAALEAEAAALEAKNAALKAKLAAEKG

APC2375-AA = biological target: T8, APC2375-AA; conditions: mean of both orientations
T8 chain: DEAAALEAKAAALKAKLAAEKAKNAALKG

APC2474-AA = biological target: T9, APC2474-AA; conditions: mean of both orientations
T9 chain: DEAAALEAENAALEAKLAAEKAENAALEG

APC2543-AA = biological target: T10, APC2543-AA; conditions: mean of both orientations
T10 chain: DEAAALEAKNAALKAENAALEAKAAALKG

APC2556-AA = biological target: T11, APC2556-AA; conditions: mean of both orientations
T11 chain: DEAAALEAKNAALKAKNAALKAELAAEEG

APC2724-AA = biological target: T12, APC2724-AA; conditions: mean of both orientations
T12 chain: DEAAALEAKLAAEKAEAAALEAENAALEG

APC2811-AA = biological target: T13, APC2811-AA; conditions: mean of both orientations
T13 chain: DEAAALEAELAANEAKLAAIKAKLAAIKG

APC2981-AA = biological target: T14, APC2981-AA; conditions: mean of both orientations
T14 chain: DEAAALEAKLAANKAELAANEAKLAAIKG

APC3265-AA = biological target: T15, APC3265-AA; conditions: mean of both orientations
T15 chain: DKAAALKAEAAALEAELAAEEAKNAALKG

APC3323-AA = biological target: T16, APC3323-AA; conditions: mean of both orientations
T16 chain: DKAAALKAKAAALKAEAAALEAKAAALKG

APC3354-AA = biological target: T17, APC3354-AA; conditions: mean of both orientations
T17 chain: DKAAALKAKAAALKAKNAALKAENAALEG

APC3881-AA = biological target: T18, APC3881-AA; conditions: mean of both orientations
T18 chain: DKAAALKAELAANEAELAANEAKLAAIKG

APC4100-AA = biological target: T19, APC4100-AA; conditions: mean of both orientations
T19 chain: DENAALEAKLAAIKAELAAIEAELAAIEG

APC4336-AA = biological target: T20, APC4336-AA; conditions: mean of both orientations
T20 chain: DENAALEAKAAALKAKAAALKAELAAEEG

APC5009-AA = biological target: T21, APC5009-AA; conditions: mean of both orientations
T21 chain: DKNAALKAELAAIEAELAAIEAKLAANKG

APC542-AA = biological target: T22, APC542-AA; conditions: mean of both orientations
T22 chain: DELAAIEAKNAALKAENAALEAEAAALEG

APC5531-AA = biological target: T23, APC5531-AA; conditions: mean of both orientations
T23 chain: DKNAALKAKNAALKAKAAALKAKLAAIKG

APC6088-AA = biological target: T24, APC6088-AA; conditions: mean of both orientations
T24 chain: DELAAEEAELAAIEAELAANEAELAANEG

APC7524-AA = biological target: T25, APC7524-AA; conditions: mean of both orientations
T25 chain: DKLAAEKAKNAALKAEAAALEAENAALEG

APC8401-AA = biological target: T26, APC8401-AA; conditions: mean of both orientations
T26 chain: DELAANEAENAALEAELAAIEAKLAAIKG

APC8516-AA = biological target: T27, APC8516-AA; conditions: mean of both orientations
T27 chain: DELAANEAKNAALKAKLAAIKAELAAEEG

APC9141-AA = biological target: T28, APC9141-AA; conditions: mean of both orientations
T28 chain: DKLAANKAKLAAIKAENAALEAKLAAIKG

APC9182-AA = biological target: T29, APC9182-AA; conditions: mean of both orientations
T29 chain: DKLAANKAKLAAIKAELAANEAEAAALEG

APC9291-AA = biological target: T30, APC9291-AA; conditions: mean of both orientations
T30 chain: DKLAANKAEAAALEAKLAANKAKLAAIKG

APC9806-AA = biological target: T31, APC9806-AA; conditions: mean of both orientations
T31 chain: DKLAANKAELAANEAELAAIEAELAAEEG

## DEIAALEAKNAALKAKIAALKAKNAALKG [Core_ININ-es_EKKK]
Core_ININ-es_KEEE
  interaction score: 2.37

## DKLAAIKAKLAAIKAKLAAIKAKNAALKG [APC1115-AA]
APC1115-AA
  interaction score: -0.803
APC1242-AA
  interaction score: -1.35
APC1916-AA
  interaction score: -1.84
APC1987-AA
  interaction score: -1.74
APC222-AA
  interaction score: 0.216
APC2257-AA
  interaction score: -1.42
APC2375-AA
  interaction score: -1.67
APC2474-AA
  interaction score: -1.58
APC2543-AA
  interaction score: -1.49
APC2556-AA
  interaction score: -1.69
APC2724-AA
  interaction score: -1.69
APC2811-AA
  interaction score: -1.19
APC2981-AA
  interaction score: -1.43
APC3265-AA
  interaction score: -1.52
APC3323-AA
  interaction score: -1.52
APC3354-AA
  interaction score: -1.93
APC3881-AA
  interaction score: -1.47
APC4100-AA
  interaction score: 0.913
APC4336-AA
  interaction score: -1.61
APC5009-AA
  interaction score: -0.451
APC542-AA
  interaction score: -1.93
APC5531-AA
  interaction score: -1.86
APC6088-AA
  interaction score: -1.12
APC7524-AA
  interaction score: -1.68
APC8401-AA
  interaction score: -1.04
APC8516-AA
  interaction score: -1.51
APC9141-AA
  interaction score: -1.58
APC9182-AA
  interaction score: -1.98
APC9291-AA
  interaction score: -1.83
APC9806-AA
  interaction score: -1.67
